Assay results as given in the Human Domainome abundance scans (Beltran et al. 2025).
± gives the uncertainty stated by the source.

B1: Lysine-specific demethylase 5C, residues 319 to 373; numbered along this chain, P41229 (parent)
chain: AQFIESYVCRMCSRGDEDDKLLLCDGCDDNYHIFCLLPPLPEIPKGVWRCPKCVM

Variants of: B1
Assay: abundance fitness (aPCA) (normalised: wild type 0, dead -1); higher = more abundant; growth selection in yeast, the domain comes from the species named
Details: Homo sapiens

L37W and L37N are within error of each other in abundance fitness: 0.182 ± 0.12 for the first, 0.172 ± 0.19 for the second.

Compared with L37K, L37Q is lower in abundance fitness: 0.277 ± 0.15 for the first, -0.108 ± 0.16 for the second.

L37Y and L37G are within error of each other in abundance fitness: -0.328 ± 0.15 for the first, -0.134 ± 0.14 for the second.

L37E and L37M are within error of each other in abundance fitness: -0.073 ± 0.14 for the first, 0.054 ± 0.15 for the second.

L37T and L37H are within error of each other in abundance fitness: -0.03 ± 0.18 for the first, -0.023 ± 0.22 for the second.

L37I and L37P are within error of each other in abundance fitness: -0.043 ± 0.22 for the first, -0.076 ± 0.16 for the second.

L37S and L37D are within error of each other in abundance fitness: -0.012 ± 0.1 for the first, 0.122 ± 0.16 for the second.

L37A and L37R are within error of each other in abundance fitness: -0.02 ± 0.13 for the first, 0.092 ± 0.088 for the second.

L37C and L37F are within error of each other in abundance fitness: -0.137 ± 0.14 for the first, -0.193 ± 0.17 for the second.

L37V and L36T are within error of each other in abundance fitness: -0.083 ± 0.13 for the first, -0.16 ± 0.15 for the second.

L36P and L36W are within error of each other in abundance fitness: -0.613 ± 0.2 for the first, -0.237 ± 0.2 for the second.

Compared with L36S, L36Q is lower in abundance fitness: -0.157 ± 0.091 for the first, -0.555 ± 0.25 for the second.

L36F and L36N are within error of each other in abundance fitness: -0.26 ± 0.17 for the first, -0.576 ± 0.25 for the second.

Compared with L36G, L36H is higher in abundance fitness: -0.688 ± 0.17 for the first, 0.006 ± 0.26 for the second.

Compared with L36I, L36E is lower in abundance fitness: -0.134 ± 0.18 for the first, -0.551 ± 0.21 for the second.

First: L36V
Second: L36D
The abundance fitness of the first is higher: -0.118 ± 0.1 for the first, -0.898 ± 0.32 for the second.

Compared with L36C, L36M is lower in abundance fitness: 0.232 ± 0.13 for the first, -0.275 ± 0.17 for the second.

Compared with L36R, P39K is higher in abundance fitness: -0.732 ± 0.14 for the first, 0.148 ± 0.17 for the second.

Going from P39I to P39H, the abundance fitness falls from -0.076 ± 0.19 to -0.787 ± 0.3.

Going from P39F to P39E, the abundance fitness rises from -0.667 ± 0.29 to -0.025 ± 0.16.

P39L and P39Y are within error of each other in abundance fitness: -0.473 ± 0.14 for the first, -0.59 ± 0.21 for the second.

P39G and P39A are within error of each other in abundance fitness: -0.217 ± 0.12 for the first, -0.018 ± 0.11 for the second.

P39N and P39C are within error of each other in abundance fitness: -0.045 ± 0.17 for the first, -0.264 ± 0.15 for the second.

P39T and P39Q are within error of each other in abundance fitness: -0.599 ± 0.17 for the first, -0.276 ± 0.16 for the second.

First: P39D
Second: P39W
The abundance fitness of the first is higher: -0.233 ± 0.18 for the first, -0.752 ± 0.27 for the second.

P39V and P39M are within error of each other in abundance fitness: -0.129 ± 0.11 for the first, -0.292 ± 0.18 for the second.

Compared with P39S, P39R is lower in abundance fitness: 0.078 ± 0.1 for the first, -0.164 ± 0.12 for the second.

First: K45E
Second: K45D
The abundance fitness of the first is lower: -0.138 ± 0.16 for the first, 0.237 ± 0.2 for the second.

K45V and K45S are within error of each other in abundance fitness: -0.179 ± 0.15 for the first, -0.266 ± 0.12 for the second.

K45L and K45N are within error of each other in abundance fitness: -0.175 ± 0.12 for the first, -0.022 ± 0.15 for the second.

K45I and K45T are within error of each other in abundance fitness: -0.25 ± 0.23 for the first, -0.003 ± 0.17 for the second.

K45C and K45W are within error of each other in abundance fitness: -0.156 ± 0.14 for the first, -0.446 ± 0.2 for the second.

K45F and K45Q are within error of each other in abundance fitness: -0.491 ± 0.21 for the first, -0.277 ± 0.16 for the second.

First: K45Y
Second: K45H
The abundance fitness of the first is lower: -0.553 ± 0.27 for the first, -0.048 ± 0.17 for the second.

K45A and K45R are within error of each other in abundance fitness: -0.176 ± 0.15 for the first, -0.067 ± 0.12 for the second.

First: K45P
Second: K45M
The abundance fitness of the first is higher: -0.032 ± 0.14 for the first, -0.469 ± 0.28 for the second.

G46D and G46V are within error of each other in abundance fitness: 0.043 ± 0.21 for the first, -0.105 ± 0.14 for the second.

G46K and G46R are within error of each other in abundance fitness: -0.383 ± 0.21 for the first, -0.083 ± 0.15 for the second.

G46L and G46M are within error of each other in abundance fitness: -0.191 ± 0.11 for the first, -0.235 ± 0.18 for the second.

Going from G46I to G46A, the abundance fitness rises from -0.538 ± 0.21 to -0.059 ± 0.2.

G46P and G46Q are within error of each other in abundance fitness: -0.42 ± 0.31 for the first, -0.093 ± 0.29 for the second.

Going from G46N to G46H, the abundance fitness rises from -0.405 ± 0.2 to 0.132 ± 0.23.

First: G46E
Second: G46W
The abundance fitness of the first is higher: 0.364 ± 0.26 for the first, -0.464 ± 0.24 for the second.

G46S and G46Y are within error of each other in abundance fitness: -0.204 ± 0.13 for the first, -0.366 ± 0.18 for the second.

G46C and P38F are within error of each other in abundance fitness: -0.578 ± 0.21 for the first, -0.564 ± 0.16 for the second.

P38T and P38L are within error of each other in abundance fitness: -0.285 ± 0.2 for the first, -0.237 ± 0.086 for the second.

First: P38C
Second: P38I
The abundance fitness of the first is higher: -0.166 ± 0.13 for the first, -0.62 ± 0.31 for the second.

P38V and P38N are within error of each other in abundance fitness: -0.1 ± 0.1 for the first, 0.041 ± 0.2 for the second.

Compared with P38R, P38Q is higher in abundance fitness: -0.116 ± 0.11 for the first, 0.178 ± 0.18 for the second.

P38A and P38H are within error of each other in abundance fitness: -0.042 ± 0.12 for the first, -0.12 ± 0.17 for the second.

P38W and P38M are within error of each other in abundance fitness: -0.491 ± 0.16 for the first, -0.388 ± 0.15 for the second.

P38K and P38D are within error of each other in abundance fitness: -0.283 ± 0.26 for the first, -0.35 ± 0.2 for the second.

P38E and P38Y are within error of each other in abundance fitness: -0.191 ± 0.19 for the first, -0.416 ± 0.18 for the second.

P38G and C35W are within error of each other in abundance fitness: -0.454 ± 0.13 for the first, -0.804 ± 0.27 for the second.

C35Y and C35V are within error of each other in abundance fitness: -0.786 ± 0.39 for the first, -1.17 ± 0.22 for the second.

E42T and E42G are within error of each other in abundance fitness: 0.068 ± 0.11 for the first, -0.157 ± 0.15 for the second.

Compared with E42R, E42L is lower in abundance fitness: -0.072 ± 0.091 for the first, -0.431 ± 0.11 for the second.

E42V and E42W are within error of each other in abundance fitness: -0.157 ± 0.14 for the first, -0.333 ± 0.14 for the second.

E42P and E42M are within error of each other in abundance fitness: -0.611 ± 0.17 for the first, -0.37 ± 0.19 for the second.

E42I and E42D are within error of each other in abundance fitness: 0.009 ± 0.27 for the first, 0.043 ± 0.24 for the second.

E42N and E42Q are within error of each other in abundance fitness: -0.034 ± 0.17 for the first, 0.033 ± 0.27 for the second.

E42C and E42H are within error of each other in abundance fitness: -0.245 ± 0.15 for the first, -0.44 ± 0.19 for the second.

E42K and E42S are within error of each other in abundance fitness: -0.506 ± 0.17 for the first, -0.273 ± 0.094 for the second.

E42Y and E42A are within error of each other in abundance fitness: -0.125 ± 0.16 for the first, -0.05 ± 0.15 for the second.

E42F and P41Q are within error of each other in abundance fitness: -0.231 ± 0.17 for the first, -0.051 ± 0.21 for the second.

Compared with P41G, P41R is higher in abundance fitness: -0.078 ± 0.097 for the first, 0.126 ± 0.083 for the second.

P41N and P41C are within error of each other in abundance fitness: -0.157 ± 0.23 for the first, -0.185 ± 0.13 for the second.

P41F and P41A are within error of each other in abundance fitness: -0.261 ± 0.15 for the first, -0.134 ± 0.13 for the second.

P41T and P41E are within error of each other in abundance fitness: -0.1 ± 0.2 for the first, -0.278 ± 0.19 for the second.

First: P41L
Second: P41H
The abundance fitness of the first is higher: 0.135 ± 0.1 for the first, -0.286 ± 0.23 for the second.

P41M and P41K are within error of each other in abundance fitness: -0.55 ± 0.24 for the first, -0.092 ± 0.23 for the second.

First: P41S
Second: P41W
The abundance fitness of the first is higher: 0.047 ± 0.094 for the first, -0.36 ± 0.13 for the second.

P41Y and P41V are within error of each other in abundance fitness: -0.244 ± 0.22 for the first, -0.051 ± 0.13 for the second.

P41I and L40F are within error of each other in abundance fitness: -0.134 ± 0.47 for the first, -0.678 ± 0.46 for the second.

Going from I43T to I43K, the abundance fitness rises from -0.467 ± 0.17 to -0.101 ± 0.14.

First: I43L
Second: I43W
The abundance fitness of the first is higher: 0.101 ± 0.1 for the first, -0.202 ± 0.14 for the second.

I43C and I43V are within error of each other in abundance fitness: -0.314 ± 0.15 for the first, -0.137 ± 0.15 for the second.

I43Q and I43E are within error of each other in abundance fitness: 0.076 ± 0.14 for the first, -0.057 ± 0.32 for the second.

Going from I43M to I43G, the abundance fitness falls from 0.156 ± 0.14 to -0.302 ± 0.12.

I43F and I43S are within error of each other in abundance fitness: -0.21 ± 0.23 for the first, -0.082 ± 0.11 for the second.

I43N and I43D are within error of each other in abundance fitness: -0.222 ± 0.25 for the first, -0.462 ± 0.36 for the second.

Going from I43R to I43Y, the abundance fitness falls from -0.022 ± 0.092 to -0.333 ± 0.16.

I43P and I43H are within error of each other in abundance fitness: -0.307 ± 0.17 for the first, -0.139 ± 0.17 for the second.

I43A showed an abundance fitness of -0.281 ± 0.18.
